Changes are numbered by the printed parent chain.
T1: recombinant mouse MAdCAM (mouse, UniProt Q61826 22-365)
T1 sequence (looked up): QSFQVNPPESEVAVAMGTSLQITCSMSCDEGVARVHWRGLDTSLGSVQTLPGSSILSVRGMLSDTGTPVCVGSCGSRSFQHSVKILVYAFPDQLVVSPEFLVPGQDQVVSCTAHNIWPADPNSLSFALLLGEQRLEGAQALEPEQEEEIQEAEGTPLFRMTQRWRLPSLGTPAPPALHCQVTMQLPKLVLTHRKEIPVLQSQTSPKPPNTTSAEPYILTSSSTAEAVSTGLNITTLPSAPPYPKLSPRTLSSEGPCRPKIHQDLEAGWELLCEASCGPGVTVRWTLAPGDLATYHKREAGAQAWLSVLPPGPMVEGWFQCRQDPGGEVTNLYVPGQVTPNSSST

T2: chimeric cynomolgus/human MAdCAM (cynomolgus; human, UniProt Q13477 226-382, limits assumed)
T2 sequence: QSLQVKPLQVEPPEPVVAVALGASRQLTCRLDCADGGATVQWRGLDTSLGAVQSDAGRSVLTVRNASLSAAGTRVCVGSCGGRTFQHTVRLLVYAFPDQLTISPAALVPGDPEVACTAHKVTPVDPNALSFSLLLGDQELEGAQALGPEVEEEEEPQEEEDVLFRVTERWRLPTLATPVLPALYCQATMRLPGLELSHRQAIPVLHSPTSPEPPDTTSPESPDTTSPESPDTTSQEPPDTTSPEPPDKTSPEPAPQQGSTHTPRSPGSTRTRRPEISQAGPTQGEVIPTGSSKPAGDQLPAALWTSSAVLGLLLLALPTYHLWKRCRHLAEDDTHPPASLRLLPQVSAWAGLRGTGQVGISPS

T3: human MAdCAM (full length) (human, UniProt Q13477 19-382)
T3 sequence (looked up): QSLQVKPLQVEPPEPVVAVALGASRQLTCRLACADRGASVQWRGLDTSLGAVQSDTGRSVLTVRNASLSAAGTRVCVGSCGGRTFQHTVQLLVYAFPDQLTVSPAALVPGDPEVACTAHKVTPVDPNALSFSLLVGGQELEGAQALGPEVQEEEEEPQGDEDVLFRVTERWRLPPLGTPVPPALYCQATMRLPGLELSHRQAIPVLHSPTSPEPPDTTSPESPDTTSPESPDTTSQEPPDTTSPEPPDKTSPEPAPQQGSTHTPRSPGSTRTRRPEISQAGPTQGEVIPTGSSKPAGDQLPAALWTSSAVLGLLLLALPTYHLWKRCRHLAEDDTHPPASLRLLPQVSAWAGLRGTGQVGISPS

B1: modified anti-MAdCAM monoclonal antibody 6.34.2-mod (antibody, human IgG2, kappa, V domains shown)
VH: QVQLVESGGGVVQPGRSLRLSCAASGFTFSSYGMHWVRQAPGKGLEWVAVISNDGNNKYYADSVKGRFTISRDNSKNTLYLQMNSLRAEDTAVYYCARDSTAITYYYYGMDVWGQGTTVTVSS
VL: DIQMTQSPSSLSASVGDRVTITCRASQSISSYLNWYQQKPGKAPKLLIYAASGLKRGVPSRFSGSGSGTDFTLTISSLQPEDFATYYCHQSYSLPFTFGPGTKVDIKR
B2: modified anti-MAdCAM monoclonal antibody 6.22.2-mod (antibody, human IgG2, kappa, V domains shown)
VH: QVQLVESGGGVVQPGRSLRLSCAASGFTFSSDGMHWVRQAPGKGLEWVAIIWYDGSNKYYADSVKGRFTISRDNSKNTLYLQMNSLRAEDTAVYYCARDPGYYYGMDVWGQGTTVTVSS
VL: EIVLTQSPDFQSVTPKEKVTITCRASQRIGSSLHWYQQKPDQSPKLLIKYASQSFSGVPSRFSGSGSGTDFTLTINSLEAEDAATYYCHQSGRLPLTFGGGTKVEIKR
B3: modified anti-MAdCAM monoclonal antibody 7.26.4-mod (antibody, human IgG2, kappa, V domains shown)
VH: QVQLVQSGAEVKKPGASVKVSCEASGYTFTSYGIDWVRQAPGQGLEWMGWISVYSGNTNYAQKLQGRVTMSTDTSTSTAYMELRSLRSDDTAVYYCAREGSSSSGDYYYGMDVWGQGTTVTVSS
VL: DIVMTQTPLSLSVTPGQPASISCKSSQSLLYSDGKTYLFWYLQKPGQPPQLLIYEVSNRFSGVPDRFSGSGSGTDFTLKISRVEAEDVGVYYCMQSIQLPWTFGQGTKVEIKR
B4: modified anti-MAdCAM monoclonal antibody 6.77.1-mod (antibody, human IgG2, kappa, V domains shown)
VH: EVQLVESGGGLVKPGGSLRLSCAASGFTFSSYSMNWVRQAPGKGLEWVSSISSSSSYIYYADSVKGRFTISRDNAKNSLYLQMNSLRAEDTAVYYCARDGYSSGWSYYYYYGMDVWGQGTTVTVSS
VL: B3 VL with Y31L, F39N, Y92S, P100M, W101S, T102S, V109L
B5: modified anti-MAdCAM monoclonal antibody 6.67.1-mod (antibody, human IgG2, kappa, V domains shown)
VH: QVQLQESGPGLVKPSETLSLTCTVSGDSISSNYWSWIRQPAGKGLEWIGRIYTSGGTNSNPSLRGRVTMSVDTSKNQFSLKLSSVTAADTAVYYCARDRITIIRGLIPSFFDYWGQGTLVTVSS
VL: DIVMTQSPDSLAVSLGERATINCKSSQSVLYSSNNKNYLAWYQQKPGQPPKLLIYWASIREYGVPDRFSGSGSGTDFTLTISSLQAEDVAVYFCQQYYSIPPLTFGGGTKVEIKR
B6: anti-MAdCAM monoclonal antibody 6.73.2 (antibody, human IgG4, kappa, V domains shown)
VH: EVQLLESGGDLVQPGGSLRLSCAASGFTFRSYAMNWVRQAPGKGLEWVSVISGRGGTTYYADSVKGRFTISRDNSKNTLYLQMNSLRAEDAAVYYCAKIAVAGEGLYYYYGMDVWGQGTTVTVSS
VL: DIQMTQSPSSLSASVGDRVTFTCRASQNITNYLNWYQQKPGKAPKLLIYAASSLPRGVPSRFRGSGSGTDFTLTISSLQPEDFATYYCQQSYSNPPECGFGQGTTLDIKR
notes: human IgG4 kappa from hybridoma 6.73.2
B7: anti-MAdCAM monoclonal antibody 6.14.2 (antibody, human IgG4, kappa, V domains shown)
VH: EVQLLESGGGLVQPGGSLRLSCAASGLTFNNSAMTWVRQAPGKGLEWVSTTSGSGGTTYYADSVKGRFTISRDSPKNTLYLQMNSLRAEDTAVYYCAARGYSYGTTPYEYWGQGTLVTVSS
VL: DIQMTQSPSSLSASVGDRVTITCRASRSISSYLNWYQQKPGKAPKVLIFFVSSLQSGVPSRFSGSGSGTDFTLTISSLQPEDFATYYCQQNYIPPITFGQGTRLEIRR
notes: human IgG4 kappa from hybridoma 6.14.2
B8: anti-MAdCAM monoclonal antibody 9.8.2 (antibody, human IgG4, kappa, V domains shown)
VH: QVQLVESGGGVVQPGRSLRLSCAASGFTFSSYGMHWVRQAPGKGLEWVAVIWYDGSNEYYADSVKGRFTISRDNSKNTLYLQMNSLRAEDTAVYYCARGAYHFAYWGQGTLVTVSS
VL: DIQMTQSPSSLSASVGDRVTITCQASQDISNYLNWYQQKPGKAPKLLIYDASNLETGVPSRFSGSGSGTDFTFTISSLQPEDIATYSCQHSDNLSITFGQGTRLEIKR
notes: human IgG4 kappa from hybridoma 9.8.2
B9: anti-MAdCAM monoclonal antibody 1.7.2 (antibody, human IgG2, kappa, V domains shown)
VH: EVQLVESGGGLVKPGGSLRLSCVASGFTFTNAWMIWVRQAPGKGLEWVGRIKRKTDGGTTDYAAPVKGRFTISRDDSKNTLYLQMNSLKTEDTAVYYCTTGGVAEDYWGQGTLVTVSS
VL: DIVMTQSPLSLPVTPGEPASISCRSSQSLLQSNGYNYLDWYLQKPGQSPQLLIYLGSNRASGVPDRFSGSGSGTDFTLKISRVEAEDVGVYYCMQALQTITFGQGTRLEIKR
notes: human IgG2 kappa from hybridoma 1.7.2; biotinylated for staining of human sections
B10: anti-MAdCAM monoclonal antibody 1.8.2 (antibody, human IgG2, kappa, V domains shown)
VH: B9 VH with A24V
VL: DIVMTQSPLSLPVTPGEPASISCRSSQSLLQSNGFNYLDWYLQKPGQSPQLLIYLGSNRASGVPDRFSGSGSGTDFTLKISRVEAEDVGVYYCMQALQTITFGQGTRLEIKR
notes: human IgG2 kappa from hybridoma 1.8.2
B11: anti-MAdCAM monoclonal antibody 7.20.5 (antibody, human IgG2, kappa, V domains shown)
VH: QVQLQESGPGLVKPSETLSLTCTVSGSSISSYHWNWIRQPAGKGLEWIGRIYTSGSTNYNPSLKSRVTMSLDTSKNQFSLKLSSVTAADTAVYYCAREGVRYYYASGSYYYGLDVWGQGTTVTVSS
VL: not shown
notes: human IgG2 kappa from hybridoma 7.20.5
B12: anti-MAdCAM monoclonal antibody 6.77.1 (antibody, human IgG4, kappa, V domains shown)
VH: B4 VH
VL: B3 VL with K24N, Y31L, F39N, Y92S, P100M, W101C, T102S, V109L
notes: human IgG4 kappa from hybridoma 6.77.1
B13: anti-MAdCAM monoclonal antibody 7.16.6 (antibody, human IgG2, kappa, V domains shown)
VH: B3 VH with E23K, D35N, L64V, S71T, T72A, E82D
VL: B3 VL with Y31H, S32T, K35T, F39Y, V90I, S96N
notes: Alexa488-labelled in the sandwich ELISA, biotinylated for staining of human sections

Target: MAdCAM-IgG1 Fc fusion protein (human)
Assay: cell-based or functional assay

| MAdCAM IgG1 Fc fusion Assay Mean IC50 (Modified) [µg/mL] | Binder |
| --- | --- |
| 0.049 | B1 |
| 0.058 | B2 |
| 0.033 | B3 |
| 0.077 | B4 |
| 0.037 | B5 |

Target: T1, recombinant mouse MAdCAM
Assay: ELISA

| binding result | Binder |
| --- | --- |
| no binding | B6 |
| no binding | B7 |
| no binding | B8 |
| no binding | B9 |
| no binding | B10 |
| no binding | B11 |
| no binding | B12 |
| no binding | B13 |

Target: T4, MAdCAM-IgG1 Fc fusion protein (human)
T4 construct: Made in CHO-DHFR cells; also called MAdCAM-IgFc
Assay: SPR BIAcore protocol 2: mAb amine-coupled, MAdCAM-IgG1 Fc injected
Description: Affinity-purified mAb were immobilized onto the dextran layer of a CMS biosensor chip using amine coupling. […] Samples of MAdCAM-IgG₁ Fc fusion protein in running buffer were prepared at concentrations ranging from 0.2-55 nM (a 0 nM solution comprising running buffer alone was included as a zero reference). Samples were randomized and injected in duplicate for 3 mM each across 4 flow cells using HBS-EP (10 mM HEPES pH 7.4, 150 mM NaCl, 3 mM EDTA, 0.005% Surfactant P20) as running buffer. A flow rate of 100 μL/min was used to minimize mass transport limitations. Dissociation of MAdCAM-IgG₁ Fc fusion protein was monitored for 180 mins, the surface regenerated by a 6 sec injection of 25 mM H₃PO₄ (50 μL/min), or 10 mM (6.22.2), 20 mM (6.67.1, 6.73.2, 6.77.1) to 25 mM (6.34.2) and 45 mM NaOH (6.14.2) and the data analysed using the BIAevaluation (v3.1) software package.

| Kd [nM] | koff [s⁻¹] | kon [M⁻¹ s⁻¹] | Binder |
| --- | --- | --- | --- |
| < 0.01 | < 5e-06 | 500000 | B7 |
| 0.0325 | 1.4e-05 | 440000 | B8 |
| 0.0236 | 1.3e-07 | 5500 | B9 |
| 0.128 | 2.3e-05 | 180000 | B10 |
| 0.075 | 1.2e-05 | 160000 | B11 |

Target: T4, MAdCAM-IgG1 Fc fusion protein
Assay: SPR BIAcore protocol 1: mAb captured, MAdCAM-IgG1 Fc injected
Description: To perform kinetic analyses, a high density mouse anti-human (IgG₂ and IgG₄) antibody surface over a CMS BIAcore sensor chip was prepared using routine amine coupling. Hybridoma supernatants were diluted 10, 5, 2-fold in HBS-P (10 mM HEPES pH 7.4, 150 mM NaCl, 0.005% Surfactant P20) running buffer containing 100 μg/mL BSA and 10 mg/mL carboxymethyldextran or used neat. Each mAb was captured onto a separate surface using a […] contact time and a 5 mM wash for stabilization of the mAb baseline. MAdCAM-IgG₁ Fc (141 nM) fusion protein was then injected at over all surfaces for one minute, followed by a 3 mM dissociation. The data were normalized for the amount of antibody captured on each surface and evaluated with global fit Langmuir 1:1, using baseline drift models available on the BIAevaluation software provided by BIAcore.

| Kd [nM] | koff [s⁻¹] | kon [M⁻¹ s⁻¹] | Binder |
| --- | --- | --- | --- |
| 0.093 | 0.00013 | 1.4e+06 | B6 |
| ≤ 0.0077 | ≤ 1e-05 | 130000 | B7 |
| 0.1 | 0.00023 | 2.3e+06 | B8 |
| ≤ 0.042 | ≤ 1e-05 | 240000 | B9 |
| ≤ 0.035 | ≤ 1e-05 | 290000 | B10 |
| 0.0422 | 1.9e-05 | 450000 | B11 |
| ≤ 0.0067 | ≤ 1e-05 | 1.5e+06 | B12 |

Target: T2, chimeric cynomolgus/human MAdCAM
Assay: cell-based or functional assay

| Functional IC50, cynomolgus/human MAdCAM-CHO/JY adhesion assay [µg/mL] | Binder |
| --- | --- |
| 0.53 | B7 |
| 0.83 | B8 |
| 0.62 | B11 |
| 0.64 | B12 |

Target: T3, human MAdCAM (full length)
Assay: cell-based or functional assay

| Mean IC50, JY cell adhesion, MAdCAM FlpIn CHO Assay [µg/mL] | Binder |
| --- | --- |
| 0.369 | B6 |
| 0.291 | B7 |
| 0.44 | B8 |
| 0.052 | B9 |
| 0.424 | B10 |
| 0.387 | B11 |
| 0.52 | B12 |

Target: T4, MAdCAM-IgG1 Fc fusion protein
Assay: cell-based or functional assay

| Mean IC50, JY cell adhesion to MAdCAM IgG1 Fc fusion [µg/mL] | Binder |
| --- | --- |
| 0.02 | B6 |
| 0.011 | B7 |
| 0.02 | B8 |
| 0.03 | B9 |
| 0.027 | B10 |
| 0.025 | B11 |

From US20190300605A1 (Pfizer, published 2019)
